Results taken from patent US20080280833A1 (published 2008).

Molecular target: αvβ3 integrin on rat smooth muscle cells (RSMC) (rat)
Experiment: cell-based or functional assay

Row | IC50 of inhibition of VN-induced migration of RSMC (Boyden chamber chemotaxis) | stimulation of RSMC migration (Boyden chamber chemotaxis) | Binder
1 | 0.01 to 0.02 pM |  | IQEGAAGRPKDDR [peptide D2A-Ala (D2A with the two glutamic acids of GEEG changed into alanines)]
2 |  | 3 fold | IQEGEEGRPKDDR [peptide D2A, synthetic peptide of domain 2 of human uPAR (aa130-142)]
